System: MS2 coat protein
Test: apparent KD of MS2 coat protein; designed switch direction (-1 OFF switch, 1 ON switch): 1; higher = weaker reporter binding
Method in brief: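 The reported apparent KD is a per-design median over clusters, from curve fits of normalised cluster fluorescence. Protein titrations used SNAP-549-labelled MS2 coat protein, doubled from 0.7 or 1.5 nM to 3 µM, in Tris-HCl pH 7.5 buffer with KCl, MgCl2, BSA, DTT, tRNA and Tween-20, with no input, 200 uM small-molecule ligand, or an oligonucleotide input. The RNA switches were transcribed on Illumina chips by stalled E. coli RNA polymerase.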

[1] = input ligand: microRNA oligo, concentration not stated
[2] = Eterna round: R95, input ligand: FMN 200 uM
[3] = Eterna round: R95, input ligand: microRNA oligo, concentration not stated
[4] = Eterna round: R95, input ligand: none

Row | Sequence | apparent KD of MS2 coat protein (input ligand: FMN 200 uM) | apparent KD of MS2 coat protein [1] | apparent KD of MS2 coat protein (input ligand: none) | apparent KD of MS2 coat protein [2] | apparent KD of MS2 coat protein [3] | apparent KD of MS2 coat protein [4]
1 | ACUCUACAUGAGGAUCACCCAUGUUGAGCCCAUCAAGGAUAUGGGUCUUAAUCGCGGGUGCCAGAAGGUGAUGGUU [Xesove] (Eterna round: R96, puzzle: Same State 1) | 0.313 µM | 0.0468 µM | 0.0943 µM |  |  | 
2 | ACUUAGUACAAUUUAGAUCUACAUGAGGAUCACCCAUGUACUGAGGAUAUCAGCUCGAAUAGAGCUGAGAAGGCAGUAGUACUA [SSNG3/9-A1] (Eterna round: R96, puzzle: Same State NG 3) | 0.0474 µM | 0.0426 µM | 0.0502 µM |  |  | 
3 | ACUUAGUACAAUUUAGAUCUACAUGAGGAUCACCCAUGUACUGAGGAUAUCAGCUCGUUUAGAGCUGAGAAGGCAGAAGUACUU [SSNG3/8-A3] (Eterna round: R96, puzzle: Same State NG 3) | 0.0547 µM | 0.234 µM | 0.207 µM |  |  | 
4 | ACUUGCGGCACAGGAUAUGGGUGCCUGUACAUGAGGAUCACCCAUGUUAAGGGACGGAUUACGAACCAGAAGGGUGAGGCGGGC [Aqube] (Eterna round: R96, puzzle: Same State NG 2) | 1.35 µM | 0.296 µM | 0.3 µM |  |  | 
5 | ACUUGCUUUUUGCUCAUUUUAUGUCCGAAACAUGAGGAUCACCCAUGUGUAGAUUAUGUGUUGUUUUUGAUACGUGA [JR_SHM208A_Sub067] (puzzle: Sensor for hsa-mir-208a) |  |  |  | 0.0246 µM | 0.0207 µM | 0.0263 µM
6 | AGAGGAGGCGCAGGAUAUACGACGGAGGACGUGGUAGAAGGGUGCAUGCGAUGACAUGAGGAUCACCCAUGUACCGCGCGACGA [AK SSNG1-V2-16] (Eterna round: R96, puzzle: Same State NG 1) | 0.337 µM | 0.0142 µM | 0.0789 µM |  |  | 
7 | AGAUCAUGACGAGGAUAUGGAACAUGAGGAUCACCCAUGUAUGUUCCAUAACGCGAACGACGAAUCCAGAAGGCGUCGUGAUCA [Mat - Same State NG 2 - JL mod - D42] (Eterna round: R96, puzzle: Same State NG 2) | 0.00524 µM | 0.0216 µM | 0.0263 µM |  |  | 
8 | AGAUCAUGACGAGGAUAUGGUACAUGAGGAUCACCCAUGUAUGUAUCAUAACGCGAAUGACGAAACCAGAAGGCGUCGUGAUCA [Mat - Same State NG 2 - JL mod - D43] (Eterna round: R96, puzzle: Same State NG 2) | 0.00874 µM | 0.0119 µM | 0.0158 µM |  |  | 
9 | AGAUGUUAAUCAGGAUAUGGGCACAUGAGGAUCACCCAUGUAUUUUCGAUGCUAUGUGGAGACGUCUAGAAGGGAUGGCUAACA [SameState NG2 #86] (Eterna round: R96, puzzle: Same State NG 2) | 0.165 µM | 0.126 µM | 0.185 µM |  |  | 
10 | AGAUGUUAAUCAGGAUAUGGGCCCGUGAGGAUCACCCACGGAAAGUAGGUCCAACAGGGCCCAGUCUAGAAGGGAUGGCUAACA [malcolm 80 ssNG2 F5+F7.2] (Eterna round: R96, puzzle: Same State NG 2) | 0.112 µM | 0.0198 µM | 0.084 µM |  |  | 
11 | AGCCGAAGCGCAGGAUAUACAUGCACACAUGAGGAUCACCCAUGUGGCAACACGUGGUAGUGAUUGUAGAAGGGUGCUCGGCGC [Omei SS(NG)2 Cv16] (Eterna round: R96, puzzle: Same State NG 2) | 0.0601 µM | 0.0344 µM | 0.051 µM |  |  | 
12 | AGCCUGAGUCGAGGAUAUUAUGGAUCAAUUAAUACAUGAGGAUCACCCAUGUAAUUAAUUUAACAUGAGAAGGCGACUCAGGCA [SSNG2/10-A1] (Eterna round: R96, puzzle: Same State NG 2) | 0.00772 µM | 0.00543 µM | 0.00866 µM |  |  | 
13 | AGCGAGAUAGGCAAGGAUAUGCUGGGUUUCACAUGAGGAUCACCCAUGUCAUAGGUAAUGUCCGAGCAGAAGGUGCAUUCUCUUU [ak bound state multiloop solution] (puzzle: Same State 2) |  |  |  |  | 0.172 µM | 
14 | AGCUAUCGAAAACGAUAGCAAAGGCAUGUACAUGAGGAUCACCCAUGUCAUGUACAAGCUUUUUGCUCGUCUUAAAA [Zipper 23 - 3] (Eterna round: R96, puzzle: Sensor for hsa-mir-208a) | 0.66 µM | 0.0141 µM | 0.44 µM |  |  | 
15 | AGCUAUCGAAAACGAUAGCAAAGGCAUGUACAUGAGGAUCACCCAUGUCAUGUACAAGCUUUUUGCUCGUCUUAAAA [Zipper 23 - 3] (puzzle: Sensor for hsa-mir-208a) |  |  |  | 0.799 µM | 0.0159 µM | 0.983 µM
16 | AGCUAUUACGAAGGAUAUUGUGACAUGAGGAUCACCCAUGUUUUCAUGAUUUAUUGUGAUCACGUCGAGAAGGUUGUACUAACA [SameState NG2 #29] (Eterna round: R96, puzzle: Same State NG 2) | 0.0592 µM | 0.0508 µM | 0.0518 µM |  |  | 
17 | AGGAAGGAGACUGAGGAUAUCGUAAGGAGGACAUGAGGAUCACCCAUGUGUAUAGGAUUGGAGGACGAGAAGGCAGAGGAGUGGG [JR_SS2_Sub048] (puzzle: Same State 2) |  |  |  | 0.0297 µM | 0.0197 µM | 0.0265 µM
18 | AGGCAAGCUUUUUGCUGGUAUGGAGGAUAACAUGAGGAUCACCCAUGUAUUGGAGGUGUUGAAGAUUUGAGAAAGAA [JR_SHM208A_Sub005] (puzzle: Sensor for hsa-mir-208a) |  |  |  | 0.118 µM | 0.149 µM | 0.139 µM
19 | AGGCUCAGACUAGGAUAUAUGUGGUCACAUGAGGAUCACCCAUGUCUCGAGCUUCGGCUCGAGGCAUAGAAGGAGUCUGAGCCA [SSNG2/5-D1] (Eterna round: R96, puzzle: Same State NG 2) | 0.459 µM | 0.014 µM | 0.713 µM |  |  | 
20 | AGGCUGAGUCGAGGAUAUGAUCUUCAUAUAAUAACAUGAGGAUCACCCAUGUAUAAUUACAUGGAUCAGAAGGCGACUCAGCCA [SSNG2/13-B1] (Eterna round: R96, puzzle: Same State NG 2) | 0.0354 µM | 0.414 µM | 0.584 µM |  |  | 
